Results as given in patent US20180117171A1, “IMMUNOCONJUGATES FOR PROGRAMMING OR REPROGRAMMING OF CELLS” (President and Fellows of Harvard College, priority 2015, published 2018).

Key:
[1] = tested on: antigen specific Th17 T cells; assay: Th17 ELISpot of splenocytes challenged with MOG; assay type: in vivo; conditions: splenocytes of treated mice with EAE induced, MOG challenge
From the text: To further explore the mechanism for tolerance induction in EAE animals treated with bolus immunoconjugate, T cell analyses (ELISpot and passive EAE assays) were completed in mice that received the immunoconjugate or control therapies (FIG. 36A-C). Splenocytes from mice treated with MOG alone or Dex-MOG with EAE induced were challenged with MOG to quantitate antigen specific elaboration of IL-17.

[2] = tested on: CD8+ T cells from OT-I mice; assay: OT-I: DC co-culture, CFSE T cell proliferation; assay type: cell-based, mouse; conditions: dexamethasone-SIINFEKL 1.0 μM; ovalbumin 0.2 μM
Description: Cytotoxic T-lymphocytes (CTLs) were purified using magnetic beads (Miltenyi Biotec) from the spleens of the T cell receptor (TCR) transgenic OT-I mice (Jackson Laboratories) following the manufacturer's protocol. OT-I mice express a transgenic T cell receptor that recognizes ovalbumin residues 257-264 in the context of H2Kb. The CTLs were cultured with a 1:1 ratio with BMDC for 3 days at 37° C. in R10 media. […] The cells were washed two times before culturing with the T cells. Dexamethasone-TRP-2 was made following the same solid phase method as described above (Peptide synthesizer: CS Bio, DIPEA, Piperidine, TFA, and NMP: Advanced ChemTech, DCM: Sigma, amino acids and resin: Peptides International, dexamethasone hemisuccinate: Steraloids). Three days later, the cells were harvested and analyzed by flow cytometry using the BD LSR II Fortessa. The plots for flow cytometry were obtained using FCS Express.
Carboxyfluorescein succinimidyl ester (CFSE) labeled CD8+ T cells from TCR transgenic OT-I mice were cultured with BMDC for 3 days. […] Three days later, the cells were analyzed by flow cytometry.

[3] = tested on: bone marrow derived dendritic cells (BMDC); assay: BMDC presentation of […] from CpG-OVA conjugate (flow cytometry); assay type: cell-based; conditions: 18 hours; compared to unconjugated CpG and OVA
Description: CpG-OVA conjugate was cultured with bone marrow derived dendritic cells (BMDC) in vitro for 18 hours. BMDC presentation of […] was analyzed using flow cytometry and percentage of CD11c+ DCs presenting the […] peptide on the MHC-I molecule was quantified.

[4] = release of conjugate from the MPS scaffold; assay type: physicochemical
Description: FIG. 48 is a line graph showing the evaluation of the release kinetics of the GnRH-OVA conjugate from the MPS scaffold. The conjugate was loaded into the MPS scaffold for 8 hours at room temperature (RT).
C57bl/6J mice were immunized with MPS scaffold containing 1 ug GM-CSF and 100 ug OVA, 1 ug GM-CSF, 100 ug CpG and 100 ug OVA (MPS vaccine) or 1 ug GM-CSF and 100 ug OVA conjugated to 100 ug CpG (MPS conjugate vaccine). After 7 days, peripheral blood was analyzed using […] tetramer and the percentage of […] specific T cells within CD3+CD8+ T cells was quantified. MPS conjugate vaccine increased the presence of […] specific CD8+ T cells by 2 fold compared with the MPS vaccine (FIG. 40, bottom).

## MEVGWYRSPFSRVVHLYRNGK [MOG alone, myelin oligodendrocyte glycoprotein residues 35-55, reference compound]
[1]
  IL-17 spot forming cells: 230±10 spot forming cells per million

B1: ovalbumin: model antigen protein (protein, UniProt P01012 2-386, looked up)
Ovalbumin: GSIGAASMEFCFDVFKELKVHHANENIFYCPIAIMSALAMVYLGAKDSTRTQINKVVRFDKLPGFGDSIEAQCGTSVNVHSSLRDILNQITKPNDVYSFSLASRLYAEERYPILPEYLQCVKELYRGGLEPINFQTAADQARELINSWVESQTNGIIRNVLQPSSVDSQTAMVLVNAIVFKGLWEKAFKDEDTQAMPFRVTEQESKPVQMMYQIGLFRVASMASEKMKILELPFASGTMSMLVLLPDEVSGLEQLESIINFEKLTEWTSSNVMEERKIKVYLPRMKMEEKYNLTSVLMAMGITDVFSSSANLSGISSAESLKISQAVHAAHAEINEAGREVVGSAEAGVDAASVSEEFRADHPFLFCIKHIATNAVLFFGRCVSP
[2]
  OT-I T cell proliferation, BMDC pretreated with antigen: initiated a stronger proliferative response

B2: CpG-OVA conjugate: OVA protein linked through maleimide to reduced thiol-CpG (conjugate, UniProt P01012 2-386, looked up)
Ovalbumin: GSIGAASMEFCFDVFKELKVHHANENIFYCPIAIMSALAMVYLGAKDSTRTQINKVVRFDKLPGFGDSIEAQCGTSVNVHSSLRDILNQITKPNDVYSFSLASRLYAEERYPILPEYLQCVKELYRGGLEPINFQTAADQARELINSWVESQTNGIIRNVLQPSSVDSQTAMVLVNAIVFKGLWEKAFKDEDTQAMPFRVTEQESKPVQMMYQIGLFRVASMASEKMKILELPFASGTMSMLVLLPDEVSGLEQLESIINFEKLTEWTSSNVMEERKIKVYLPRMKMEEKYNLTSVLMAMGITDVFSSSANLSGISSAESLKISQAVHAAHAEINEAGREVVGSAEAGVDAASVSEEFRADHPFLFCIKHIATNAVLFFGRCVSP
modifications: CpG oligonucleotide via maleimide linker
[3]
  CD11c+ DCs presenting SIINFEKL on MHC-I: enhanced presentation
[4]
  release from the MPS scaffold: released in a sustained manner followed by a burst release
